{
  "source": "patent US20240407995A1",
  "about": "“BIOMINERALIZATION MATERIAL FOR TREATING DENTIN HYPERSENSITIVITY AND PROMOTING EPITAXIAL GROWTH OF ENAMEL, AND USE THEREOF” (SHAANXI NORMAL UNIVERSITY, priority 2022, published 2024)",
  "experiment": "Film-forming critical line of lysozyme concentration vs cysteine concentration",
  "format": "physicochemical",
  "details": "FIG. 2",
  "protocol": "In order to study a film-forming critical line between a film-forming protein and cysteine, the inventors prepared different concentrations of film-forming protein solutions and cysteine solutions, and curves were drawn as shown in FIG. 2. […] However, when the protein concentration was 0.2 mg/mL, higher concentration of cysteine was required for film formation.",
  "data": [
    {"substance": "lysozyme [Lyz]", "values": [
      {"measurement": "protein concentration at which a small amount of cysteine could form a film", "result": "greater than or equal to 0.2 mg/mL"}
    ]}
  ]
}
